In doi:10.1101/2020.09.10.291369, “In vivo and in vitro mechanistic characterization of a clinically relevant PolγA mutation”:

Biological target: T1, POLγA A449T (UniProt P54099 26-1218, A450T)
T1 sequence: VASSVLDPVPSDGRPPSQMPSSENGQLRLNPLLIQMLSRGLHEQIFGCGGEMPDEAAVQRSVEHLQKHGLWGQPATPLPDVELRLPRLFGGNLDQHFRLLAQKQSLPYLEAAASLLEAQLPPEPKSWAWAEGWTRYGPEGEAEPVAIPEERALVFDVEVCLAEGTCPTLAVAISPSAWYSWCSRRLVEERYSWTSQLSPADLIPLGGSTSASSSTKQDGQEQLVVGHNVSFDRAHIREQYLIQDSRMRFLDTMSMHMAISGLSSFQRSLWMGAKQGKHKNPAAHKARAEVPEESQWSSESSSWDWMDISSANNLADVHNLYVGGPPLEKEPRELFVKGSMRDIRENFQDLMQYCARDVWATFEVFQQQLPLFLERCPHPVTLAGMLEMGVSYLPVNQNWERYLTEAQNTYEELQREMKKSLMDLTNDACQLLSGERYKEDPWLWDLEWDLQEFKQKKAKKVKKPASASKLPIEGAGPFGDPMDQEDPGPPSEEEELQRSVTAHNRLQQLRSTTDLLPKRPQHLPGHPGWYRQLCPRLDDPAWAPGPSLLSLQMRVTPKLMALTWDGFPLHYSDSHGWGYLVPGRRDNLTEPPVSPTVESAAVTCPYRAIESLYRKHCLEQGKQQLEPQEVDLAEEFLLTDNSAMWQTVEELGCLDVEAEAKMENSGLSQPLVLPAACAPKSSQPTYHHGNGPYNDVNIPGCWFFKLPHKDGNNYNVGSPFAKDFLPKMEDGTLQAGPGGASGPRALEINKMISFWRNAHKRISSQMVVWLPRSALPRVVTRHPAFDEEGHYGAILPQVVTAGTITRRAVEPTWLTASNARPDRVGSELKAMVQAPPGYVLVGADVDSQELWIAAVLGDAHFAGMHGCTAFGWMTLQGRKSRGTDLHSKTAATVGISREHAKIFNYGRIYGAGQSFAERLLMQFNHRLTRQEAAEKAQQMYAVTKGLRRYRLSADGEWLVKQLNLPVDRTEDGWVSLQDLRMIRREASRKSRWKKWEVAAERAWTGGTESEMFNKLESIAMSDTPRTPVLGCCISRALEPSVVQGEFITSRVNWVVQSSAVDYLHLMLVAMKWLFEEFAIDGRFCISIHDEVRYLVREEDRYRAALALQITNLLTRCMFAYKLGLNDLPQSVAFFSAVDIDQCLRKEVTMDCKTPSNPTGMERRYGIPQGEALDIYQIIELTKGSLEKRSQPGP
Experiment: EMSA; POLγA alone; 10 mM MgCl2, ddGTP, dCTP, ATP; Kd in Suppl. Fig. 5A, value not in material; EMSA: 10 fmol DNA in 15 µl, 20 mM Tris-HCl pH 7.8, 1 mM DTT, 0.1 mg/ml BSA, 10 mM MgCl2, 10% glycerol, 2 mM ATP, 0.3 mM ddGTP, 3 mM dCTP, RT 10 min; 6% native PAGE 0.5x TBE
Conditions: protein: recombinant; label: 5'-32P on strand 2 (21-mer); 5' overhang 15 nt on strand 1; 21 bp duplex; primer-template

B1: 36-nt/21-nt primed template (mixed)
DNA 1: TTTTTTTTTTATCCGGGCTCCTCTAGACTCGACCGC
DNA 2: GCGGTCGAGTCTAGAGGAGCC
Work on B1 yielded a binding signal of about 3.4 fold weaker than WT.
